The subject of this data set is F1*sub RNA substrate (template-directed ligation). In words: fraction ligated after 30 min (ligated reads / total reads); higher = more ligase activity; sequences stand for … in GAGACCGCAACTGAAAAGTTGT…AGTTCTGCACGTAGAAGCAAAAGGC
The following applies: 42 °C. The method in brief: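 Oligo-pool templates of ligase ribozyme variants were PCR-amplified, T7-transcribed and gel-purified. Ligated and unligated bands were gel-separated, reverse transcribed with barcoded primers, and MiSeq-sequenced; core bases were filtered at quality ≥20. Fraction ligated per variant was ligated reads over total reads.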
For the sequence “TATCACTTTCGTAAACACTTGGATGGGTTGA [3d1522]”, the fraction ligated was found to be 0.778.

In turn, “TATCACTTTCGTAAACACTTTGATGGGTTGA [3d1523]” yielded a fraction ligated of 0.768.

Consider “TATCACTTTCGTAAACACTTTGGAGGGTTGA [3d1525]”, for which the fraction ligated is 0.0183. As to “TATCACTTTCGTAAACACTTTGGATGGGTTA [3d1527]”, the fraction ligated came to 0.575. For the sequence “TATCACTTTCGTAAACACTTTGGATGGGTTG [3d1528]”, the fraction ligated was determined as 0.776. For the sequence “TATCACTTTCGTAAACACTTTGGATGGTTGA [3d1526]”, the fraction ligated is 0.0497. The figure for “TATCACTTTCGTAAACACTTTGGTGGGTTGA [3d1524]” is 0.0319. The figure for “TATCACTTTCGTAAACATTTGGATGGGTTGA [3d1521]” is 0.787. The figure for “TATCACTTTCGTAAACCTTTGGATGGGTTGA [3d1520]” is 0.788; for “TATCACTTTCGTAACACTTTGGATGGGTTGA [3d1507]” it is 0.796. Sequence “TATCACTTTCGTAAGAACTTGGATGGGTTGA [3d1540]” showed a fraction ligated of 0.829. The figure for “TATCACTTTCGTAAGAACTTTGATGGGTTGA [3d1541]” is 0.829; for “TATCACTTTCGTAAGAACTTTGGAGGGTTGA [3d1543]” it is 0.126; for “TATCACTTTCGTAAGAACTTTGGATGGGTTA [3d1545]” it is 0.851. The figure for “TATCACTTTCGTAAGAACTTTGGATGGGTTG [3d1546]” is 0.868; for “TATCACTTTCGTAAGAACTTTGGATGGTTGA [3d1544]” it is 0.643. Turning to “TATCACTTTCGTAAGAACTTTGGTGGGTTGA [3d1542]”, the fraction ligated was determined as 0.342.

“TATCACTTTCGTAAGAATTTGGATGGGTTGA [3d1539]”: the fraction ligated amounted to 0.835. For “TATCACTTTCGTAAGACACTGGATGGGTTGA [3d1561]”, the fraction ligated came to 0.774. The figure for “TATCACTTTCGTAAGACACTTGATGGGTTGA [3d1562]” is 0.787; for “TATCACTTTCGTAAGACACTTGGAGGGTTGA [3d1564]” it is 0.085. For “TATCACTTTCGTAAGACACTTGGATGGGTTA [3d1566]”, the fraction ligated is 0.477. As for “TATCACTTTCGTAAGACACTTGGATGGGTTG [3d1567]”, the fraction ligated is 0.773. On to “TATCACTTTCGTAAGACACTTGGATGGTTGA [3d1565]”, for which the fraction ligated is 0.134. The figure for “TATCACTTTCGTAAGACACTTGGTGGGTTGA [3d1563]” is 0.171; for “TATCACTTTCGTAAGACACTTTATGGGTTGA [3d1568]” it is 0.0429. Sequence “TATCACTTTCGTAAGACACTTTGAGGGTTGA [3d1570]” displayed a fraction ligated of 0.0593. Turning to “TATCACTTTCGTAAGACACTTTGATGGGTTA [3d1572]”, the fraction ligated was found to be 0.0837. The sequence “TATCACTTTCGTAAGACACTTTGATGGGTTG [3d1573]” had a fraction ligated of 0.731. In turn, “TATCACTTTCGTAAGACACTTTGATGGTTGA [3d1571]” gave a fraction ligated of 0.0696. As for “TATCACTTTCGTAAGACACTTTGGAGGGTTA [3d1579]”, the figure is 0.04; as for “TATCACTTTCGTAAGACACTTTGGAGGGTTG [3d1580]”, 0.0276; as for “TATCACTTTCGTAAGACACTTTGGAGGTTGA [3d1578]”, 0.0266. As for “TATCACTTTCGTAAGACACTTTGGATGGGTT [3d1583]”, the figure is 0.22. As for “TATCACTTTCGTAAGACACTTTGGATGGGTTA [2d161]”, the figure is 0.751.

For the sequence “TATCACTTTCGTAAGACACTTTGGATGGGTTG [2d162]”, the fraction ligated is 0.777. The figure for TATCACTTTCGTAAGACACTTTGGATGGGTTGA [1d8] is 0.815; for “TATCACTTTCGTAAGACACTTTGGATGGTTA [3d1581]” it is 0.0764. The figure for “TATCACTTTCGTAAGACACTTTGGATGGTTG [3d1582]” is 0.0551. In turn, “TATCACTTTCGTAAGACACTTTGGATGGTTGA [2d160]” yielded a fraction ligated of 0.114.

As for “TATCACTTTCGTAAGACACTTTGGGGGTTGA [3d1574]”, the fraction ligated stood at 0.0345. As for “TATCACTTTCGTAAGACACTTTGGTGGGTTA [3d1576]”, the figure is 0.0309. Turning to “TATCACTTTCGTAAGACACTTTGGTGGGTTG [3d1577]”, the fraction ligated was determined as 0.0247. In turn, “TATCACTTTCGTAAGACACTTTGGTGGTTGA [3d1575]” registered a fraction ligated of 0.025.

For the sequence “TATCACTTTCGTAAGACACTTTGTGGGTTGA [3d1569]”, the fraction ligated amounted to 0.0262.

On to “TATCACTTTCGTAAGACATTGGATGGGTTGA [3d1554]”, for which the fraction ligated was 0.791. The figure for “TATCACTTTCGTAAGACATTTGATGGGTTGA [3d1555]” is 0.768; for “TATCACTTTCGTAAGACATTTGGAGGGTTGA [3d1557]” it is 0.0972; for “TATCACTTTCGTAAGACATTTGGATGGGTTA [3d1559]” it is 0.778. As for “TATCACTTTCGTAAGACATTTGGATGGGTTG [3d1560]”, the figure is 0.811; as for “TATCACTTTCGTAAGACATTTGGATGGTTGA [3d1558]”, 0.286.

Consider “TATCACTTTCGTAAGACATTTGGTGGGTTGA [3d1556]”, for which the fraction ligated came to 0.284.

Take “TATCACTTTCGTAAGACCTTGGATGGGTTGA [3d1547]”: the fraction ligated was 0.766. As for “TATCACTTTCGTAAGACCTTTGATGGGTTGA [3d1548]”, the figure is 0.786; as for “TATCACTTTCGTAAGACCTTTGGAGGGTTGA [3d1550]”, 0.0285. Regarding “TATCACTTTCGTAAGACCTTTGGATGGGTTA [3d1552]”, the fraction ligated stood at 0.623.

“TATCACTTTCGTAAGACCTTTGGATGGGTTG [3d1553]”: the fraction ligated was determined as 0.75. For “TATCACTTTCGTAAGACCTTTGGATGGTTGA [3d1551]”, the fraction ligated was 0.0784.

With “TATCACTTTCGTAAGACCTTTGGTGGGTTGA [3d1549]”, the fraction ligated was determined as 0.104.

Regarding “TATCACTTTCGTAAGACTTTGGATGGGTTGA [3d1529]”, the fraction ligated was 0.823. Regarding “TATCACTTTCGTAAGCACTTGGATGGGTTGA [3d1532]”, the fraction ligated worked out at 0.772.

Sequence “TATCACTTTCGTAAGCACTTTGATGGGTTGA [3d1533]” had a fraction ligated of 0.784. Sequence “TATCACTTTCGTAAGCACTTTGGAGGGTTGA [3d1535]” yielded a fraction ligated of 0.03. The figure for “TATCACTTTCGTAAGCACTTTGGATGGGTTA [3d1537]” is 0.727. For the sequence “TATCACTTTCGTAAGCACTTTGGATGGGTTG [3d1538]”, the fraction ligated amounted to 0.764. Consider “TATCACTTTCGTAAGCACTTTGGATGGTTGA [3d1536]”, for which the fraction ligated came out at 0.0345. The figure for “TATCACTTTCGTAAGCACTTTGGTGGGTTGA [3d1534]” is 0.0496; for “TATCACTTTCGTAAGCATTTGGATGGGTTGA [3d1531]” it is 0.791; for “TATCACTTTCGTAAGCCTTTGGATGGGTTGA [3d1530]” it is 0.774. The figure for “TATCACTTTCGTAGAACTTTGGATGGGTTGA [3d1509]” is 0.875.

As for “TATCACTTTCGTAGACACTTGGATGGGTTGA [3d1512]”, the fraction ligated came to 0.752.

As for “TATCACTTTCGTAGACACTTTGATGGGTTGA [3d1513]”, the fraction ligated is 0.783.

For the origin of these results see the supplement of paper PMC6755084.
